Assay results: publication PMC2582960, “A Structural Model of the Staphylococcus aureus ClfA–Fibrinogen Interaction Opens New Avenues for the Design of Anti-Staphylococcal Therapeutics” (PLoS Pathogens, 2008)
Where two headings read alike, the source gives them in different places. Where no end group is shown, it is not given here.

Assays:
[1] = molecular target: GST-Fg γ^1–17 (residues 395–411 of the Fg γ-chain fused to a GST protein) (human) (UniProt P02679); test: ELISA; human Fg or GST fusion protein coated (1 µg/well); His-tagged ClfA added in increasing concentrations in HBS (10 mM HEPES, 100 mM NaCl, 3 mM EDTA, pH 7.4), 25°C, 1 h; bound ClfA detected with anti-His antibodies; apparent Kd
[2] = molecular target: GST-Fg γ^1–17 (residues 395–411 of the Fg γ-chain fused to a GST protein) (human) (UniProt P02679); test: as above; remark: listed apart in the source
[3] = molecular target: human fibrinogen (Fg), full length (human) (UniProt P02671); test: as above
[4] = molecular target: ClfA_(229–545) (clumping factor A, N2N3 domains) (Staphylococcus aureus strain Newman) (UniProt Q53653); test: ITC
[5] = molecular target: T1, ClfA229–545 (Staphylococcus aureus, UniProt Q53653); test: Isothermal titration calorimetry of ClfA229–545 with soluble Fg peptides; parameters: a smaller ClfA construct (229–545) predicted to be composed only of the N2 N3 domains; His tag (pQE-30 vector) (N); made in house; host or cells: Escherichia coli XL-1 Blue; conditions: ITC, 30 µM ClfA in cell, 500–600 µM peptide in syringe, HBS pH 7.4, 30°C, single binding site model; read-out: Kd of peptide binding to ClfA229–545 in solution (ITC)
T1 sequence (Q53653 229-545): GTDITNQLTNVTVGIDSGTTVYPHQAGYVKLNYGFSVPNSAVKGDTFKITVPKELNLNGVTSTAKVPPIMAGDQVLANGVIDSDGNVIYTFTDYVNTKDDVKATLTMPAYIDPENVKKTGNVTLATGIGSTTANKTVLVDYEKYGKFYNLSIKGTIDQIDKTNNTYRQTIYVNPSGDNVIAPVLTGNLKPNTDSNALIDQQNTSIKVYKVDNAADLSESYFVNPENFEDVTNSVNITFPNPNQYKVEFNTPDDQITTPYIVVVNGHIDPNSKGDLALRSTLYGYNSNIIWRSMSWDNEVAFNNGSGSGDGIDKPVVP
Procedure: The interaction between ClfA proteins and soluble Fg peptides was analyzed by Isothermal titration calorimetry (ITC) using a VP-ITC microcalorimeter (MicroCal). The cell contained 30 µM ClfA and the syringe contained 500–600 µM peptide in HBS buffer (10 mM HEPES, 150 mM NaCl, pH 7.4). All samples were degassed for 5 min. The titration was performed at 30°C using a preliminary injection of 5 µl followed by 30 injections of 10 µl with an injection speed of 0.5 µl/sec. The stirring speed was 300 rpm. Data were fitted to a single binding site model and analyzed using Origin version 5 (MicroCal) software.

[6] = molecular target: T1, ClfA229–545; test: Solid-phase inhibition assay: Fg γ peptides inhibit ClfA binding to immobilized GST-Fg γ^1–17; parameters: a smaller ClfA construct (229–545) predicted to be composed only of the N2 N3 domains; His tag (pQE-30 vector) (N); made in house; host or cells: Escherichia coli XL-1 Blue; conditions: read-out: inhibition of ClfA binding to immobilized GST-Fg γ^1–17
Procedure: To identify specific residues in Fg that are important for binding to ClfA229–545, a panel of peptides (Fig. 1A) based on the Fg γ-chain sequence 395–411 (referred to as γ^1–17) were synthesized in which each position was sequentially substituted with an alanine residue (alanines 11 and 14 were changed to serines). These peptides were tested as inhibitors in solid-phase binding assays, using a peptide concentration giving about 50% inhibition by the wild-type peptide.
(§1) ClfA229–545 (100 nM) was pre-incubated with wild-type Fg γ^1–17 peptide (WT γ^1–17) or the P1 (G1A) to P17 (V17A) mutant peptide (50 µM) for 1 hr.
Immulon 4HBX Microtiter plates (Thermo) were coated with human Fg (1 µg/well) in HBS (10 mM HEPES, 100 mM NaCl, 3 mM EDTA, pH 7.4) over-night at 4°C. The wells were washed with HBS containing 0.05% (w/v) Tween-20 (HBST) and blocked with 5% (w/v) BSA in HBS for 1 h at 25°C. […] After incubation, the plates were washed 3 times with HBST. Anti-His antibodies (GE Healthcare) were added (1∶3000 in HBS) and the plates were incubated at 25°C for 1 h. […] The wells were washed 3 times with HBST and AP-conjugated polyclonal antibodies were detected by addition of p-nitrophenyl phosphate (Sigma) in 1 M diethanolamine (0.5 mM MgCl2, pH 9.8) and incubated at 25°C for 30–60 min. The plates were read at 405 nm in a ELISA plate reader (Thermomax, Molecular Devices). […]

[7] = molecular target: T1, ClfA229–545; conditions: read-out: Kd of ClfA229–545 binding to immobilized GST fusion protein; solid-phase assay, 1 µg GST fusion per well, increasing rClfA229–545, anti-His detection (Fig. 1C)
Procedure: as §1
Immulon 4HBX Microtiter plates (Thermo) were coated with human Fg (1 µg/well) in HBS (10 mM HEPES, 100 mM NaCl, 3 mM EDTA, pH 7.4) over-night at 4°C. The wells were washed with HBS containing 0.05% (w/v) Tween-20 (HBST) and blocked with 5% (w/v) BSA in HBS for 1 h at 25°C. […] After incubation, the plates were washed 3 times with HBST. Anti-His antibodies (GE Healthcare) were added (1∶3000 in HBS) and the plates were incubated at 25°C for 1 h. The wells were subsequently washed 3 times with HBST and incubated with goat anti-mouse-AP secondary antibodies (diluted 1∶3000 in HBS; Bio-Rad) at 25°C for 1 h. The wells were washed 3 times with HBST and AP-conjugated polyclonal antibodies were detected by addition of p-nitrophenyl phosphate (Sigma) in 1 M diethanolamine (0.5 mM MgCl2, pH 9.8) and incubated at 25°C for 30–60 min. The plates were read at 405 nm in a ELISA plate reader (Thermomax, Molecular Devices). For the inhibition assays, recombinant ClfA229–545 was pre-incubated with Fg γ peptides in HBS for 1 h at 37°C.

[8] = molecular target: T2, ClfA_(229–545) (clumping factor A, N2N3 domains) (Staphylococcus aureus strain Newman, UniProt Q53653 229-545); test: ITC
T2 chain: T1 sequence (Q53653 229-545)

human fibrinogen (Fg), full length (human), sequence (P02671 other isoform, or with tags, fused parts or gaps, chain 1 of 3): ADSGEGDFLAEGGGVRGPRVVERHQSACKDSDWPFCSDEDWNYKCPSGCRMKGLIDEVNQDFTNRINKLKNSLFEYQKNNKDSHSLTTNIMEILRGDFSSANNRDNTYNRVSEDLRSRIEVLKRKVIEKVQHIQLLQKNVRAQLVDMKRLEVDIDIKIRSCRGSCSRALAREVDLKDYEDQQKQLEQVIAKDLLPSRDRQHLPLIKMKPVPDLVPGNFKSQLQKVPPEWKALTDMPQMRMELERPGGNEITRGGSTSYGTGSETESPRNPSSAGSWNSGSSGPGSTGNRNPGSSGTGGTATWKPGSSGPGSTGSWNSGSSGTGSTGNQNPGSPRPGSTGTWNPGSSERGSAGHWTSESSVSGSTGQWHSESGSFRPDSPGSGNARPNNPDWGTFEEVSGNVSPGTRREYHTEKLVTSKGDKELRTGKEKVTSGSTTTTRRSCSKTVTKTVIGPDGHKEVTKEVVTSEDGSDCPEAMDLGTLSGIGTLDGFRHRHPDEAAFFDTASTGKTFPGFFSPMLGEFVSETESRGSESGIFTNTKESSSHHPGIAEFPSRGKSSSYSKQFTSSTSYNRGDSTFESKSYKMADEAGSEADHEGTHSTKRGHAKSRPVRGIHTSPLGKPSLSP
human fibrinogen (Fg), full length (human), sequence (P02675 31-491, chain 2 of 3, further chain): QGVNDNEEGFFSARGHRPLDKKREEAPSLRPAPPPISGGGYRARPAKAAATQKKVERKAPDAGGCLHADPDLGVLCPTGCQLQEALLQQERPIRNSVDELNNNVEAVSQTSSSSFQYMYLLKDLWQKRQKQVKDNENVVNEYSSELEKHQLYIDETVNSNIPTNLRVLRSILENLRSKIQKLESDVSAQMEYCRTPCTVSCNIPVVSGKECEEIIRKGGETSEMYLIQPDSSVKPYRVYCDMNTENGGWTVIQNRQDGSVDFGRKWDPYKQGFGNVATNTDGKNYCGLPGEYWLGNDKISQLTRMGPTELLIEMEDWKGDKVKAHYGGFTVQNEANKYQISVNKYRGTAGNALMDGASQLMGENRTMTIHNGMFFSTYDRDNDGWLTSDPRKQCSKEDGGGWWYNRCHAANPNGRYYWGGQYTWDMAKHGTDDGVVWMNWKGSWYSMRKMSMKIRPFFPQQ
human fibrinogen (Fg), full length (human), sequence (P02679 other isoform, or with tags, fused parts or gaps, chain 3 of 3, further chain): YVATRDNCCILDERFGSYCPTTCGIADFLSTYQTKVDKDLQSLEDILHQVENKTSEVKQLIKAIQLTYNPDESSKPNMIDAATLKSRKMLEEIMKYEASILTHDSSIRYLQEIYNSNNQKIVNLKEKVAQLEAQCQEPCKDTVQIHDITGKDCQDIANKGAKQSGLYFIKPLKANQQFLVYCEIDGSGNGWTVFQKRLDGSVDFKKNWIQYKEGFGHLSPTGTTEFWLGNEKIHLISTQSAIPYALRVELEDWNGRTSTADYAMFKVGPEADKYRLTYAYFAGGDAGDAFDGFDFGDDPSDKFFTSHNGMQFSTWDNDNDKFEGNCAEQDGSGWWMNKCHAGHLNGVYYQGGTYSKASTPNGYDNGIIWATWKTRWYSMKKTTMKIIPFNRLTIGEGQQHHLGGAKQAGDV

**Q.** For “ClfA_(229–545) (clumping factor A, N2N3 domains) (from UniProt Q53653 229-545) (domain or fragment)”, which Kd [1] is on record?
**A.** 0.657 µM

**Q.** And the Kd [2]?
**A.** 0.222 µM

**Q.** With “ClfA_((229–545)D327C/K541C), stable closed conformation (from UniProt Q53653 229-545) (domain or fragment)” as the molecule, how does the Kd [2] read?
**A.** 0.02 µM

**Q.** What about the Kd [3] of the same molecule?
**A.** 0.034 µM

**Q.** With “Fg γ^1–17 peptide, wild type (Fg γ-chain 395–411) (from UniProt P02679-2 421-437)” as the molecule, how does the Kd [4] read?
**A.** 5.8 µM

**Q.** With GEGQQHHLGGAKQAGAV [γ^1–17 D16A] as the molecule, how does the Kd [5] read?
**A.** 3 µM

**Q.** GEGQQHHLGGAKQAGDV [WT γ^1–17] was tested. Which inhibition at 50 µM [6] did it give?
**A.** ~50%

**Q.** What about the Kd [5] of the same molecule?
**A.** 5.8 µM

**Q.** For “GST-Fg γ^1–17: recombinant form of residues 395–411 of the Fg γ-chain fused to a GST protein (GEGQQHHLGGAKQAGDV; also: fused to GST, end not given here)”, which Kd [7] is on record?
**A.** 0.657 µM

**Q.** QHHLGGAKQAGAV [Fg γ^5–17 _(D16A) peptide (13 residues)] was tested. Which Kd [8] did it give?
**A.** 10.5 µM

**Q.** Which Kd [8] does the source give for HLGGAKQAGAV [Fg γ^1–17 _(D16A) peptide truncated by 6 amino acids at the N-terminus] here?
**A.** 22.5 µM

**Q.** Which Kd [8] does the source give for GQQHHLGGAKQAGAV [Fg γ^1–17 _(D16A) peptide truncated by 2 amino acids at the N-terminus] here?
**A.** 8.8 µM
